Assay results published in patent publication US20110189234A1.

Molecular target: Tail-T(ii)-MH chimeric adenovirus spike protein (adenovirus serotype 5; reovirus type 3 Dearing) (UniProt P11818)

Substance: anti-His antibody (penta-His MAb; Qiagen)
- transduction of 293HissFv.rec cells (luciferase activity): 90%
